Laboratory results as given in publication PMC12866682 (2025).

T1: Purified human MPO (human, UniProt P05164 49-745)
T1 chain: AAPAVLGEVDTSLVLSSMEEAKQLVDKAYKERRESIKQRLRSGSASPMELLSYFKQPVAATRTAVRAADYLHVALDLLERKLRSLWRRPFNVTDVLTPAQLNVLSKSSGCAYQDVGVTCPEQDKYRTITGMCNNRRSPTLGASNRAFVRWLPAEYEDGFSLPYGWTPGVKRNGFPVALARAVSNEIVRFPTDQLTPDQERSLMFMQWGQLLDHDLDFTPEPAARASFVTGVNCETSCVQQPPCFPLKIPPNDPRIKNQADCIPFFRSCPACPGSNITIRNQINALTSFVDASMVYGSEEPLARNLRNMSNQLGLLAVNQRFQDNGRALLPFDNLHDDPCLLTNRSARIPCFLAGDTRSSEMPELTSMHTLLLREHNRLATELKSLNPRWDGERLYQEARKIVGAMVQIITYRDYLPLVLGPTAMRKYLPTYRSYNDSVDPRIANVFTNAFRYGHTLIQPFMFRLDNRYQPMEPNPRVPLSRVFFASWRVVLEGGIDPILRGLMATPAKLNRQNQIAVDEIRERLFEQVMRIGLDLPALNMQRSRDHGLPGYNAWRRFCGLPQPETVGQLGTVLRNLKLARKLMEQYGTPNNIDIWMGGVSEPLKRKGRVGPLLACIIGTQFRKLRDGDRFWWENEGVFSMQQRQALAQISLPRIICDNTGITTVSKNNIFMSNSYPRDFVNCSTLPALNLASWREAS


Columns and labels:
T96K TREM2 protein = T96K TREM2 protein (UniProt Q9NZC2); assay: solid-phase binding (SPB) assay; WT, R47H or T96K TREM2 immobilised, MPO in solution (n=5); method not described in the text shown
Purified human MPO = target: T1, Purified human MPO; assay: SPR

| fold affinity over the WT or R47H TREM2 protein (T96K TREM2 protein) | Kd (Purified human MPO) | Molecule |
| --- | --- | --- |
| 1.3 fold |  | Purified human MPO (from UniProt P05164 49-745) (ligand) |
|  | 551 nM | Purified human TREM2 protein (receptor) HNTTVFQGVAGQSLQVSCPYDSMKHWGRRKAWCRQLGEKGPCQRVVSTHNLWLLSFLRRWNGSTAITDDTLGGTLTITLRNLQPHDAGLYQCQSLHGSEADTLRKVLVEVLADPLDHRDAGDLWFPGESESFEDAHVEHSISRSLLEGEIPFPPTSILLLLACIFLIKILAASALWAAAWHGQKPGTHPPSELDCGHDPGYQLQTLPGLRDT |
